Measurements taken from patent US20250084178A1, “ANTI-CD39 ANTIBODIES AND USE THEREOF” (ARCUS BIOSCIENCES, INC., priority 2022, published 2025).
Entries after “also recorded” stand apart in the source; their conditions may differ.

Columns and labels:
human CD39 [1] = molecular target: T1, human CD39 (Homo sapiens, UniProt P49961); test: Enzyme histochemistry of tumors and spleens from C57BL/6 hCD39KI MC38 mice; design: species or system mouse; conditions: tumors and spleens treated in vivo, end of study
T1 sequence (P49961 1-510): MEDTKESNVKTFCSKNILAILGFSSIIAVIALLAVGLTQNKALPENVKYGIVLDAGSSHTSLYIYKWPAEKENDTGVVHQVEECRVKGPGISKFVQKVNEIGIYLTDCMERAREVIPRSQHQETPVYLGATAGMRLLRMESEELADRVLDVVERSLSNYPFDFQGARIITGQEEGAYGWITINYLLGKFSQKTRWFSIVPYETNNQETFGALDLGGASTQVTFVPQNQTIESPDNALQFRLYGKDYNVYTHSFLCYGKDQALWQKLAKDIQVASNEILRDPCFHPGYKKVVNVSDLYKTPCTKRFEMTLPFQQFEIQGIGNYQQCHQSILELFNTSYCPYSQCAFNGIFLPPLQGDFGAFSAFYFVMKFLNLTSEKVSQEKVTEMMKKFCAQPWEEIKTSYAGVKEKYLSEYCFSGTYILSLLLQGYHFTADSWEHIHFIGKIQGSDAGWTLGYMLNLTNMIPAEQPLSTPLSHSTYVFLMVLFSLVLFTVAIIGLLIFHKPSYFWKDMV
Method: Tumors and spleens from C57BL/6 hCD39KI MC38 mice at the end of the study were additionally analyzed for human CD39 expression by immunohistochemistry (IHC) and evidence of anti-CD39 antibody enzymatic blocking activity by enzyme histochemistry (EHC). Briefly, frozen OCT-embedded tumor or spleen samples were sectioned at 4 um thickness, mounted on positively charged microscope slides, air dried for 15 minutes, then placed in 4% paraformaldehyde (PFA) fixative for 20 min. After fixation, the slides were washed in Tris-buffered saline and IHC was performed on an automated Leica Bond Rx platform starting with blocking of endogenous peroxidases, followed by incubation with a rabbit anti-CD39 mAb (Abcam, EPR20627), and detected with an anti-rabbit HRP polymer system followed by a diaminobenzidine (DAB) brown chromogen, hematoxylin nuclear counterstain, and then dehydrated and mounted. […] Human CD39 expression was detected in both isotype treated (FIG. 11, panel A and FIG. 12, panel A, low- and high-power magnification, respectively) and anti-CD39 treated tumors (FIG. 11, panel C and […], low- and high-power magnification, respectively), localized to vascular endothelia, infiltrating immune cells, and stromal components of the tumor microenvironment. […]

human CD39 [2] = molecular target: T1, human CD39; test: Tumor draining lymph node cell surface CD39; format: in vivo, mouse; conditions: tumor draining lymph nodes, hCD39KI MC38 mice
Method: (§1) Cell surface CD39 decreases with anti-CD39 treatment in tumor draining lymph nodes of hCD39KI mice. Tumor draining lymph nodes (TLDNs) (right inguinal lymph node) were also collected at the end of the C57BL/6 hCD39KI MC38 mouse study described above. Lymph nodes were dissociated in a 37° C. water bath in RPMI 1640 (Gibco, Cat. No. 11875119) containing of 0.6 mg/mL Collagenase P (Roche, Cat. No. 11213865001), 2.4 mg/mL Dispase II (Sigma, Cat. No. D4693), and 0.3 mg/mL DNAse I (Thermo Scientific, Cat. No. J62229 MB) for 30 minutes with gentle agitation. The dissociated lymph nodes were counted and 2×10^5 cells per well were plated in a 96-well polypropylene v-bottom plate. Cells were washed in PBS (Gibco, Cat. No. 14190-144) and resuspended in a PBS solution containing 1:25 Fc Block (BD, Cat. No. 564220) and 1:250 Near IR Fluorescent Reactive Dye (Invitrogen, Cat. No. L34976A) for 15 minutes in the dark. After the incubation, the cells were stained with an antibody cocktail (Table 20) and incubated for 30 minutes at 4° C. After the incubation, the cells were pelleted, supernatant removed, and 100 μL of fixation buffer (eBioscience, Cat. No. 00-8222-49) was added for 1 hour. […]

[3] = tested on: immune subpopulations in tumor draining lymph nodes; test: Tumor draining lymph node immune subpopulation percentages; format: in vivo, mouse; conditions: single agent or in combination with oxaliplatin
Method: as §1

[4] = Peripheral cytokine levels in plasma (MSD); format: in vivo, mouse; conditions: terminal bleed, mice bearing MC38 tumors
Method: A terminal bleed of the mice bearing MC38 tumors were collected into BD Vacutainer® Heparin Tubes (BD Biosciences, Cat. No. 367871), centrifuged at 2000×g for 15 minutes, and supernatant plasma samples were collected. Cytokine levels in the plasma samples were analyzed using MSD following manufacturer's instructions. […] Data are presented as mean±SEM with a total of 11-12 mice per treatment group (FIG. 18). Statistical analyses were performed using an ANOVA with Tukey's multiple comparison test.

[5] = Body weight of hCD39KI MC38 mice; format: in vivo, mouse; conditions: over the course of the experiment; C57BL/6 hCD39KI MC38 mice
Method: (§2) In one experiment, C57BL/6 hCD39KI mice were inoculated with 1 million MC38 cells on day 0. When tumors reached 80 mm^3, mice were dosed intraperitoneally (i.p.) with a loading dose of 20 mg/kg anti-CD39 or isotype control antibody (vehicle: PBS), and then subsequently with 10 mg/kg anti-CD39 or isotype control antibody 2×/week (BIW). Each group consisted of 11-12 mice. […] Oxaliplatin (OXA) treatment, 5 mg/kg i.p. (vehicle: saline), was initiated the day following the anti-CD39 or isotype control loading dose and dosed 1×/week. In a similarly designed experiment, BALB/c hCD39KI mice were inoculated with 4T1 cells on day 0 and treated OXA or anti-CD39 antibody as described for the MC38 model.
(§3) Tumor volume and body weight were measured approximately twice a week (BIW) and are shown in FIG. 10A and FIG. 10B respectively, where the points represent the mean and the errors bars the standard error of the mean (SEM) of the respective metrics from each group of mice. Significance was calculated using a mixed-effects model with multiple comparisons. […] Body weight was stable over the course of the experiment indicating anti-CD39 treatment was well tolerated (FIG. 10B).

MC38 tumors = test: MC38 tumor volume in C57BL/6 hCD39KI mice; format: in vivo, mouse; conditions: anti-CD39 20 mg/kg loading then 10 mg/kg BIW i.p. with oxaliplatin 5 mg/kg i.p. 1×/week; mixed-effects model
Method: as §2, §3

CD39 enzymatic activity [6] = molecular target: T2, CD39 enzymatic activity (Homo sapiens, UniProt P49961); test: Ex vivo peripheral white blood cell CD39 enzymatic activity; format: in vivo, mouse; conditions: white blood cells of 4T1 tumor-bearing hCD39KI mice, 20 μM ATP
T2 construct: from tissue; host or cells: hCD39KI mice (C57BL/6 with MC38, BALB/c with 4T1): tumours, spleen, whole blood / WBCs, tumour-draining lymph nodes
T2 sequence (P49961 1-510): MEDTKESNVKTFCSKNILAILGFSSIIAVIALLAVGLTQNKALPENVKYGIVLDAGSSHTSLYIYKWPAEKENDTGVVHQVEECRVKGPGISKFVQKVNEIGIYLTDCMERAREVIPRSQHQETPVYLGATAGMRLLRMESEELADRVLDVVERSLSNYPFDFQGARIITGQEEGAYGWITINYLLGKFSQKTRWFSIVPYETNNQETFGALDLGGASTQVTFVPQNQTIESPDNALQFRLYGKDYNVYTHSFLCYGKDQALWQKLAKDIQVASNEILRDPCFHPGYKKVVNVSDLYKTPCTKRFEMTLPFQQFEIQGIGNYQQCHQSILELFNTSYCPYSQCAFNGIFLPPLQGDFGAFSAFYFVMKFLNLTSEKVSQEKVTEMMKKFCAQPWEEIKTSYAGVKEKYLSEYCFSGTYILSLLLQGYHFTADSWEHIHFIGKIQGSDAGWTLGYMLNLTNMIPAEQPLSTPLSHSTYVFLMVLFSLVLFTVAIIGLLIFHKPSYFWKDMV
Excerpt: To assay peripheral CD39 enzymatic activity, peripheral white blood cells (WBCs) were isolated from terminal blood samples of hCD39KI mice and assayed as generally described for the tumor cell suspensions. Briefly, whole blood samples were mixed with 1×Pharm Lyse red blood cell lysing solution (BD Biosciences, Cat. No. 555899). WBC pellets were then collected after washing with 1×PBS solution and stored in BamBanker cell freezing medium (Bulldog Bio, Cat. No. BB01). To perform the enzymatic inhibition assay, samples were thawed and then cells were plated at 2.5×10^4 cells per well in a 96-well plate. […] All wells were then treated with 20 μM ATP and incubated for 2 hours at room temperature. At the end of the incubation period, the 96-well plate was spun at 1000 rpm for 3 minutes and the supernatant was collected. 2× Kinase-Glo® Plus (Promega, Cat. No. V3771) was then added to the supernatants. ATP levels in the supernatants were then measured by detecting luminescence using Flexstation® 3 microplate reader. Data are presented as relative luminescence units (RLU).

CD39 enzymatic activity [7] = molecular target: T2, CD39 enzymatic activity; test: Ex vivo intratumoral CD39 enzymatic activity (Kinase-Glo Plus); format: in vivo, mouse; conditions: MC38 and 4T1 tumor cell suspensions, 20 μM ATP
Method: Intratumoral and peripheral CD39 enzymatic activity was also evaluated ex vivo. Upon study completion, tumor samples obtained after sacrificing C57BL/6 hCD39KI MC38 and BALB/c hCD39KI 4T1 mice were placed in RPMI+20% FBS+250 μg/ml collagenase D (Millipore Sigma, Cat. No. 11088858001)+100 KU/ml DNAse 1 (Millipore Sigma Cat. No. D5025-150KU) and enzymatically digested using gentleMACS™ Octo Dissociator to obtain a single cell suspension. […] The cells were then treated with 20 μM ATP and incubated for an additional 30 minutes at 37° C., 5% CO2. At the end of the incubation period, the 96-well plate was spun at 1000 rpm for 3 minutes and the supernatant was collected. 2× Kinase-Glo® Plus (Promega, Cat. No. V3771) was then added to the supernatants. ATP levels in the supernatants were then measured by detecting luminescence using Flexstation® 3 microplate reader. Data are presented as relative luminescence units (RLU).

B1: ch39_mIGG2A.AAG: antibody 39 variable regions on mouse IgG2a; HC SEQ ID NO: 41, LC SEQ ID NO: 42; the anti-CD39 of Example 9 (antibody)
heavy: EVQLVESGGGLVQPGRSLKLSCLASGFTFNNYGMNWIRQAPGKGLEWVASFSSSSTYISYADTVKGRFTISRENAKNTLYLQMTSLRSEDTALYYCVRHGRYGGYGGFYFDYWGQGVMVTVSSAKTTAPSVYPLAPVCGDTTGSSVTLGCLVKGYFPEPVTLTWNSGSLSSGVHTFPAVLQSDLYTLSSSVTVTSSTWPSQSITCNVAHPASSTKVDKKIEPRGPTIKPCPPCKCPAPNAAGGPSVFIFPPKIKDVLMISLSPIVTCVVVDVSEDDPDVQISWFVNNVEVHTAQTQTHREDYNSTLRVVSALPIQHQDWMSGKEFKCKVNNKDLGAPIERTISKPKGSVRAPQVYVLPPPEEEMTKKQVTLTCMVTDFMPEDIYVEWTNNGKTELNYKNTEPVLDSDGSYFMYSKLRVEKKNWVERNSYSCSVVHEGLHNHHTTKSFSRTPGK
light: DTVLTQSPALAVSPGERVSISCRASEGVKSYMHWYQQKPGQQPKLLIYKASNLASGVPARFSGSGSGTDFTLTIDPVEADDTATYFCQQSWNDPTFGAGTKLELKRADAAPTVSIFPPSSEQLTSGGASVVCFLNNFYPKDINVKWKIDGSERQNGVLNSWTDQDSKDSTYSMSSTLTLTKDEYERHNSYTCEATHKTSTSPIVKSFNRNEC
Human CD39 [1]
  Lead-phosphate deposition by enzyme histochemistry (CD39 enzymatic activity): enzymatic activity has been blocked
Human CD39 [2]
  Human CD39 on the surface of immune subpopulations: significant reduction; also recorded: significant decrease
[3]
  Immune subpopulation percentages: did not result in significant changes
[3]; listed as anti-CD39
  Immune subpopulation percentages: No significant changes
[4]
  Peripheral cytokine levels: No elevation
[5]
  Body weight: stable
MC38 tumors
  Tumor volume: p for anti-CD39+saline vs. anti-CD39+OXA: 0.0217
  Tumor volume: p for isotype+OXA vs. anti-CD39+OXA: 0.0372
CD39 enzymatic activity [6]
  Peripheral CD39 enzymatic activity: inhibited
CD39 enzymatic activity [7]
  Intratumoral CD39 enzymatic activity: inhibited
